Experimental data: patent US20020058619A1

Key:
[1] = target: Recombinant human Flt-1/Fc chimera (R&D Systems) (human) (UniProt P17948); assay: fluorescence plate assay; control peptide at 0.1 µM on immobilized Flt-1/Fc
[2] = target: Recombinant human Flt-1/Fc chimera (R&D Systems) (human) (UniProt P17948); assay: fluorescence plate assay; control peptide at 100 µM on immobilized Flt-1/Fc
[3] = target: Recombinant human Flt-1/Fc chimera (R&D Systems) (human) (UniProt P17948); assay: fluorescence plate assay; control peptide at 0 µM on immobilized Flt-1/Fc
[4] = target: Recombinant human Flt-1/Fc chimera (R&D Systems) (human) (UniProt P17948); assay: fluorescence plate assay; control peptide at 1 µM on immobilized Flt-1/Fc
[5] = target: Recombinant human Flt-1/Fc chimera (R&D Systems) (human) (UniProt P17948); assay: fluorescence plate assay; control peptide at 10 µM on immobilized Flt-1/Fc

Sequence of Recombinant human Flt-1/Fc chimera (R&D Systems) (human) (P17948 other isoform, or with tags, fused parts or gaps mutant limits assumed): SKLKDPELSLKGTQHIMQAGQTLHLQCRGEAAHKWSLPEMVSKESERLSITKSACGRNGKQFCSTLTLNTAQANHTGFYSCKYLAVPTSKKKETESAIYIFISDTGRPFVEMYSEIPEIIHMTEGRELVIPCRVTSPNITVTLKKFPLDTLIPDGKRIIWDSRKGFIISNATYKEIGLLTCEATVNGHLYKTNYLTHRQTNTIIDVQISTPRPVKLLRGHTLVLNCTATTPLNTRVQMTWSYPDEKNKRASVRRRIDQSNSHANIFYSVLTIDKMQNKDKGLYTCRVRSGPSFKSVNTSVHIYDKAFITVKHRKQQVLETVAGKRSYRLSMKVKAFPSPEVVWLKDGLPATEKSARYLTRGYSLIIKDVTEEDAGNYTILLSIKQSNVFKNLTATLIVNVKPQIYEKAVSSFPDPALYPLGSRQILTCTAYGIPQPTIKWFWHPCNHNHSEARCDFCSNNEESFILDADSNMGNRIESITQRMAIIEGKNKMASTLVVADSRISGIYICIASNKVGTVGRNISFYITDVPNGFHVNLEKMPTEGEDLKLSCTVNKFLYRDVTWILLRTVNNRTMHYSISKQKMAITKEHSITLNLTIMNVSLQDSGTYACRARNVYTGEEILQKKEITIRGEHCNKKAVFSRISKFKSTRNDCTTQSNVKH

Question: With Control peptide (Table 5) as the substance, how does the Fluorescence [1] read?
Answer: 7

Question: And the Fluorescence [2]?
Answer: 1100

Question: What about the Fluorescence [3] of the same substance?
Answer: 0

Question: And the Fluorescence [4]?
Answer: 20

Question: What about the Fluorescence [5] of the same substance?
Answer: 493
